Measurements published in doi:10.1101/2022.05.27.493400 (2022).

Biological target: human angiotensin-converting-enzyme-2 (ACE2) receptor, recombinant (human, UniProt Q9BYF1 18-740)
Experiment: SPR

human angiotensin-converting-enzyme-2 (ACE2) receptor, recombinant, sequence (Q9BYF1 18-740): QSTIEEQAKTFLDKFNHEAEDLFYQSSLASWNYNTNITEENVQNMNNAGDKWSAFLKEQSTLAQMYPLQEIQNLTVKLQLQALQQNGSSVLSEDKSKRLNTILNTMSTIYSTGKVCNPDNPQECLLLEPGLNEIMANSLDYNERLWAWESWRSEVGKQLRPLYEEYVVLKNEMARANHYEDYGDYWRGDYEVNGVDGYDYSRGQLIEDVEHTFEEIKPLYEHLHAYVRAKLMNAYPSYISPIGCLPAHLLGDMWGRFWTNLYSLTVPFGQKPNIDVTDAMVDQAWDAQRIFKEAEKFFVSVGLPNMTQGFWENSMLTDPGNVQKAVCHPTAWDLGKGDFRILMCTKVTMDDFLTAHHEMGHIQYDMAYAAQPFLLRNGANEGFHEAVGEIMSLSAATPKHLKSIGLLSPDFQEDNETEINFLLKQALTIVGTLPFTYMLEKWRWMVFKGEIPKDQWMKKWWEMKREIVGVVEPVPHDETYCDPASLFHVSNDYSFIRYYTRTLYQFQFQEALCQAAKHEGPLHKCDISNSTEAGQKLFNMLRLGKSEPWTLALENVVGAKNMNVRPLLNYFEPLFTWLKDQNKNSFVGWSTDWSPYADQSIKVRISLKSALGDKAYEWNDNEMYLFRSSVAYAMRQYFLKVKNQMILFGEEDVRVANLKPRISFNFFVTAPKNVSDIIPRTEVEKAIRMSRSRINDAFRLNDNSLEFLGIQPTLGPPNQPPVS

B1: pineapple-derived jacalin-related lectin AcmJRL (natural protein)
chain: SGLVKLGLWGGNEGTLQDIDGHPTRLTKIVIRSAHAIDALQFDYVEDGKTFAAGQWGGNGGKSDTIEFQPGEYLIAIKGTTGALGAVTNLVRSLTFISNMRTYGPFGLEHGTPFSVPVASGRIVAFYGRFGSLVDAFGIYLMPY
modifications: glycation (+162 Da, +324 Da) of lysines in part of the protein (ca. 10% bis-, 36% mono-modified, 54% unmodified); sites not determined
- Kd: 36.4 µM
